{"source": "paper doi:10.1101/2024.01.03.573903v1", "substrate": "Nc1ncnc2c1ncn2[C@@H]1O[C@H](COP(=O)(O)OP(=O)(O)OP(=O)(O)O)[C@@H](O)[C@H]1O", "assay": "malachite green phosphate release NTPase assay", "format": "biochemical, Zika virus", "conditions": "no curcumin, 1% DMSO, 80 nM enzyme, Tris pH 7.4, 25 °C", "data": [{"protein": "ZIKV NS3 helicase (Zika virus) (protein) PVECFEPSMLKKKQLTVLDLHPGAGKTRRVLPEIVREAIKKRLRTVILAPTRVVAAEMEEALRGLPVRYMTTAVNVTHSGTEIVDLMCHATFTSRLLQPIRVPNYNLNIMDEAHFTDPSSIAARGYISTRVEMGEAAAIFMTATPPGTRDAFPDSNSPIMDTEVEVPERAWSSGFDWVTDHSGKTVWFVPSVRNGNEIAACLTKAGKRVIQLSRKTFETEFQKTKNQEWDFVITTDISEMGANFKADRVIDSRRCLKPVILDGERVILAGPMPVTHASAAQRRGRIGRNPNKPGDEYMYGGGCAETDEGHAHWLEARMLLDNIYLQDGLIASLYRPEADKVAAIEGEFKLRTEQRKTFVELMKRGDLPVWLAYQVASAGITYTDRRWCFDGTTNNTIMEDSVPAEVWTKYGEKRVLKPRWMDARVCSDHAALKSFKEFAAGKR", "values": [{"measurement": "Km", "value": "336.3 ± 61.97", "unit": "µM"}, {"measurement": "kcat", "value": "1.025 ± 0.06", "unit": "s⁻¹"}]}]}
